Test results published in patent publication US6001988, “High affinity nucleic acid ligands to lectins” (NeXstar Pharmaceuticals, Inc.).

T1: E-selectin (ES-Rg) (Homo sapiens, UniProt P16581 P16581:22-556)
T1 chain: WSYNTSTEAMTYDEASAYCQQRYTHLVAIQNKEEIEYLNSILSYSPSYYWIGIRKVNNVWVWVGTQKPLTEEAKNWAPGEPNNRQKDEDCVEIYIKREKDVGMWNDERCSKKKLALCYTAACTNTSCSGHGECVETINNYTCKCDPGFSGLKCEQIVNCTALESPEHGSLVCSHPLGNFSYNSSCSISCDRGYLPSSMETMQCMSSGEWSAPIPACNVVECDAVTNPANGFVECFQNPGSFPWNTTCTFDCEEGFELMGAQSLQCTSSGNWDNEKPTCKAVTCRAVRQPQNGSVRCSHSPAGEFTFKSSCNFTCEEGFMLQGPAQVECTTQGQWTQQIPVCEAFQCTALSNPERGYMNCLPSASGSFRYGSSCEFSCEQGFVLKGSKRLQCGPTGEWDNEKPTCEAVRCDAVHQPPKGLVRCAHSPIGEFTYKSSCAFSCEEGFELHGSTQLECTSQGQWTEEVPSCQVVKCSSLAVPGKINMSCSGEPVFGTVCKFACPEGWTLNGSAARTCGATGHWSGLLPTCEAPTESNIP

T2: P-selectin (PS-Rg) (Homo sapiens, UniProt P16109 P16109:42-321)
T2 chain: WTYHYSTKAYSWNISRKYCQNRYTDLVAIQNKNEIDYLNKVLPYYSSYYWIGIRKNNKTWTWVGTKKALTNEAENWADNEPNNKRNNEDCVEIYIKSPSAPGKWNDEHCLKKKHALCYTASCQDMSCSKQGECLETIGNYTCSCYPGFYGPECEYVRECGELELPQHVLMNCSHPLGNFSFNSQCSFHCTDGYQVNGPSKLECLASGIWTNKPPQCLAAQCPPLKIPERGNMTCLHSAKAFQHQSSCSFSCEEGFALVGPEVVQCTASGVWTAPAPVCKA

T3: wheat germ agglutinin (WGA) (Triticum vulgare, UniProt P10968 P10968:27-197)
T3 sequence: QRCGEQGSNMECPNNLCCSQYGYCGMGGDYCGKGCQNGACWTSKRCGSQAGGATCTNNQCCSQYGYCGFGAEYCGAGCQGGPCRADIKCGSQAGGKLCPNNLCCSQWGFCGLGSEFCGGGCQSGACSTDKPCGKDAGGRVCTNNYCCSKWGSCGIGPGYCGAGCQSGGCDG

B1: 233 (ssDNA)
DNA: CTACCTACGATCTGACTAGCCACGACAGAGAACAAGGCGTTAGACGTTATCCGACCACGGCTTACTCTCATGTAGTTCC
B2: 6.27 (ssRNA)
RNA: GGGAAAAGCGAAUCAUACACAAGAUGCCGGUGGAAAGGCGGGUAGGUGACCCGAGGAUUCCUACCAAGCCAUGCUCCGCCAGAGACCAACCGAGAA
modifications: 2'-NH2 all C and U
B3: 6.19 (ssRNA)
RNA: GGGAAAAGCGAAUCAUACACAAGAAUCGAACCUAGGGAUGCAACGGUGAAGGUUGUGAGGAUUCGCCAUUAGGCGCUCCGCCAGAGACCAACCGAGAA
modifications: 2'-NH2 all C and U
B4: 6.5 (ssRNA)
RNA: GGGAAAAGCGAAUCAUACACAAGAGUCCCUAGGGAUGCAACGGGCAGCAUUCGCAUAGGAGUAAUCGGAGGUCGCUCCGCCAGAGACCAACCGAGAA
modifications: 2'-NH2 all C and U
B5: 6.3 (ssRNA)
RNA: GGGAAAAGCGAAUCAUACACAAGAGAUACAGCGCGGGUCUAAAGACCUUGCCCCUAGGAUGCAACGGGGUGGCUCCGCCAGAGACCAACCGAGAA
modifications: 2'-NH2 all C and U
B6: 11.2 (ssRNA)
RNA: GGGAAAAGCGAAUCAUACACAAGACCAACGUACAUCGCGAGCUGGUGGAGAGUUCAUGAGGGUGUUACGGGGUGCUCCGCCAGAGACCAACCGAGAA
modifications: 2'-NH2 all C and U
B7: 11.29 (ssRNA)
RNA: GGGAAAAGCGAAUCAUACACAAGAACUGAGUAAGGUCUGGCGUGGCAUUAGGUUAGUGGGAGGCUUGGAGUAGGCUCCGCCAGAGACCAACCGAGAA
modifications: 2'-NH2 all C and U
B8: 11.26 (ssRNA)
RNA: GGGAAAAGCGAAUCAUACACAAGAUUGGGCAGGCAGAGCGAGACCGGGGGCUCGGCGGGAACGGAACAGGAAUGCUCCGCCAGAGACCAACCGAGAA
modifications: 2'-NH2 all C and U
B9: 11.6 (ssRNA)
RNA: GGGAAAAGCGAAUCAUACACAAGACUGGGGAGCAGGAUAUGAGAUGUGCGGGGCAAUGGAGUCGUGACGAACCGCUCCGCCAGAGACCAACCGAGAA
modifications: 2'-NH2 all C and U
B10: 11.15 (ssRNA)
RNA: GGGAAAAGCGAAUCAUACACAAGACUCGGCGGGAACGAAAGUGUCAUGGUAGCAAGUCCAAUGGUGGACUCUGCUCCGCCAGAGACCAACCGAGAA
modifications: 2'-NH2 all C and U
B11: 11.8 (ssRNA)
RNA: GGGAAAAGCGAAUCAUACACAAGAAUGGUUGGCCUGGGCGCAGGCUUCGAAGACUCGGCGGGAACGGGAAUGGCUCCGCCAGAGACCAACCGAGAA
modifications: 2'-NH2 all C and U
B12: 11.19 (ssRNA)
RNA: GGGAAAAGCGAAUCAUACACAAGAAAGGGAUGGGAUUGGGACGAGCGGCCAAGACUCGGCGGGAACGAAGGGUGCUCCGCCAGAGACCAACCGAGAA
modifications: 2'-NH2 all C and U
B13: 11.32 (ssRNA)
RNA: GGGAAAAGCGAAUCAUACACAAGACGUGCGGAGCAAAUAGGGGAUCAUGGAGUCGUACGAACCGUUAUCGCGCUCCGCCAGAGACCAACCGAGAA
modifications: 2'-NH2 all C and U
B14: 6.9 (ssRNA)
RNA: GGGAAAAGCGAAUCAUACACAAGACUCGGCGGGAACGAAGUGUGUGAGUAACGAUCACUUGGUACUAAAAGCCCGCUCCGCCAGAGACCAACCGAGAA
modifications: 2'-NH2 all C and U
B15: 11.4 (ssRNA)
RNA: GGGAAAAGCGAAUCAUACACAAGACAGGCACUGAAAACUCGGCGGGAACGAAAGUAGUGCCGACUCAGACGCGUGCUCCGCCAGAGACCAACCGAGAA
modifications: 2'-NH2 all C and U
B16: 11.5 (ssRNA)
RNA: GGGAAAAGCGAAUCAUACACAAGAACAAGGAUCGAUGGCGAGCCGGGGAGGGCUCGGCGGGAACGAAAUCUGCUCCGCCAGAGACCAACCGAGAA
modifications: 2'-NH2 all C and U
B17: 6.23 (ssRNA)
RNA: GGGAAAAGCGAAUCAUACACAAGACUCGGCGGGAAUCGAAAGUGUACUGAAUUAGAACGGUGGGCCUGCUCAUCGUGCUCCGCCAGAGACCAACCGAGAA
modifications: 2'-NH2 all C and U
B18: 11.27 (ssRNA)
RNA: GGGAAAAGCGAAUCAUACACAAGACGAUGCGAGGCAAGAAAUGGAGUCGUUACGAACCCUCUUGCAGUGCGCGGCUCCGCCAGAGACCAACCGAGAA
modifications: 2'-NH2 all C and U
B19: 11.12 (ssRNA)
RNA: GGGAAAAGCGAAUCAUACACAAGACGGCUGUGUGUGGUAGCGUCAUAGUAGGAGUCGUCACGAACCAAGGCGCUCCGCCAGAGACCAACCGAGAA
modifications: 2'-NH2 all C and U
B20: 11.34 (ssRNA)
RNA: GGGAAAAGCGAAUCAUACACAAGACUCGGCGGGAACGUGAAGUGGGUAGGUAGCUGAAGACGGUCUGGGCGCCAGCUCCGCCAGAGACCAACCGAGAA
modifications: 2'-NH2 all C and U
B21: 11.28 (ssRNA)
RNA: GGGAAAAGCGAAUCAUACACAAGAGUUGGUGCGAGCUGGGGCGGCGAGAAGGUAGGCGGUCCGAGUGUUCGAAUGCUCCGCCAGAGACCAACCGAGAA
modifications: 2'-NH2 all C and U

Biological target: T1, E-selectin (ES-Rg)
Experiment: filter; room temp, Ca/Mg buffer
Conditions: tags: extracellular domain fused to human IgG1 Fc (provided by A. Varki); chain copies: 2 (dimeric Fc chimera, inferred)
Procedure: (§1) RNA was reverse transcribed into cDNA by AMV reverse transcriptase at 48° C. for 60 min in 50 mM Tris-Cl pH (8.3), 60 mM NaCl, 6 mM Mg(OAc)_2, 10 mM DTT, 100 pmol DNA primer, 0.4 mM each of dNTPs, and 0.4 unit/µl AMV RT. […] C) Nitrocellulose Filter Partitioning As described in SELEX Patent Applications, the nitrocellulose filter partitioning method was used to determine the affinity of RNA ligands for WGA and for other proteins. Filter discs (nitrocellulose/cellulose acetate mixed matrix, 0.45 µm pore size, Millipore; or pure nitrocellulose, 0.45 µm pore size, Bio-Rad) were placed on a vacuum manifold and washed with 4 ml of HBSS buffer under vacuum. Reaction mixtures, containing ^32P labeled RNA pools and unlabeled WGA, were incubated in HBSS for 10 min at room temperature, filtered, and then immediately washed with 4 ml HBSS. The filters were air-dried and counted in a Beckman LS6500 liquid scintillation counter without fluor. WGA is a homodimer, molecular weight 43.2 kD, with 4 GlcNAc binding sites per dimer. For affinity calculations, we assume one RNA ligand binding site per monomer (two per dimer). The monomer concentration is defined as 2 times the dimer concentration. The equilibrium dissociation constant, K_d, for an RNA pool or specific ligand that binds monophasically is given by the equation $$K_d=[P_f][R_f]/[RP]$$
(§2) The affinity of representative cloned ligands for LS-Rg, ES-Rg, PS-Rg, CD22β-Rg and WGA was determined by nitrocellulose partitioning and the results shown in Table XIV. The ligands are highly specific for L-selectin.
(§3) *Kds were determined at room temperature.

With B1 the Kd was 39 nM.

Biological target: T2, P-selectin (PS-Rg)
Experiment: filter; room temp, Ca/Mg buffer
Conditions: tags: lectin, EGF and first two CRD domains fused to human IgG1 Fc (provided by A. Varki); chain copies: 2 (dimeric Fc chimera, inferred)
Procedure: as §1, §2, §3

B1 gave a Kd of 420 nM.

What follows are binders tested against T3, wheat germ agglutinin (WGA) (assay: filter; HBSS, room temp). Conditions: tags: free lectin, E Y Laboratories; label: 32P.
Procedure: as §1, with “The specifically eluted fraction was processed for use in the following round. Fractions eluted from immobilized WGA were heated at 90° C. for 5 minutes in 1% SDS, 2% β-mercaptoethanol and extracted with phenol/chloroform. RNA was” for “RNA was”
The dissociation constants for representative members of families 1–9 and orphan ligands were determined by nitrocellulose filter binding experiments and are listed in Table III. These calculations assume one RNA ligand binding site per WGA monomer.

B2 and B3 are within 1.5-fold of each other in Kd: 56 nM for the first, 74 nM for the second.

Going from B4 to B5, the Kd falls from 678 nM to 120 nM (5.7-fold).

Going from B6 to B7, the Kd falls from 62 nM to 32 nM (1.9-fold).

Same assay, conditions: tags: free lectin, E Y Laboratories; label: 32P; hairpin

Compared with B8, B9 is 18-fold higher in Kd: 38 nM for the first, 702 nM for the second. The first binds more tightly here.

First: B10
Second: B11
The Kd of the first is 5.9-fold higher: 54 nM for the first, 9.2 nM for the second.

Going from B12 to B13, the Kd rises from 22 nM to 274 nM (12-fold).

First: B14
Second: B15
The Kd of the first is 12-fold higher: 396 nM for the first, 32 nM for the second.

Compared with B16, B17 is 19-fold higher in Kd: 44 nM for the first, 824 nM for the second.

Going from B18 to B19, the Kd falls from 30 nM to 15.2 nM (2-fold).

Work on B20 yielded a Kd of 92 nM.

Same assay, conditions: tags: free lectin, E Y Laboratories; label: 32P; possible G-quartet (speculative)

Binder B21 has a Kd of 9.2 nM.
